Columns and labels:
human recombinant RIPK3 [1] = molecular target: T1, human recombinant RIPK3 (human, UniProt Q9Y572 1-518); assay: BLI; average
human recombinant RIPK3 [2] = molecular target: T1, human recombinant RIPK3; assay: BLI; fit at 3 nM GADD45β
human recombinant RIPK3 [3] = molecular target: T1, human recombinant RIPK3; assay: BLI; fit at 6 nM GADD45β
human recombinant RIPK3 [4] = molecular target: T1, human recombinant RIPK3; assay: BLI; fit at 12 nM GADD45β
human recombinant RIPK3 [5] = molecular target: T1, human recombinant RIPK3; assay: BLI; fit at 25 nM GADD45β
human recombinant RIPK3 [6] = molecular target: T1, human recombinant RIPK3; assay: BLI; fit at 50 nM GADD45β
human recombinant RIPK3 [7] = molecular target: T1, human recombinant RIPK3; assay: BLI; fit at 100 nM GADD45β

T1 sequence (Q9Y572 whole entry): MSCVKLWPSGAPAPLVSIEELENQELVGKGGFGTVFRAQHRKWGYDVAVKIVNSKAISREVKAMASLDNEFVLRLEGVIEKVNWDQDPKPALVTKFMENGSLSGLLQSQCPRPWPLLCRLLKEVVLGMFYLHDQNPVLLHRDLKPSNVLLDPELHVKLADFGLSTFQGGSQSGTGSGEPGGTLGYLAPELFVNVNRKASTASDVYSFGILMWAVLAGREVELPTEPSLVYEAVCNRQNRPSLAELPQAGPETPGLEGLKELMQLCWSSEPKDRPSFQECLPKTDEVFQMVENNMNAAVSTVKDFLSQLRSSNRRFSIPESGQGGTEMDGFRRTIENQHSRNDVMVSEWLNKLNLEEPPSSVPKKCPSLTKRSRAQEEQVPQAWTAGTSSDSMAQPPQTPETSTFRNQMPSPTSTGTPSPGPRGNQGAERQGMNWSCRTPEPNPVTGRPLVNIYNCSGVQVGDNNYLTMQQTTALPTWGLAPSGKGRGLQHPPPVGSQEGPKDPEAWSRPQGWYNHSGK

koff (human recombinant RIPK3 [1]): 0.000546 s⁻¹ | Kd (human recombinant RIPK3 [2]): 0.111 nM | Kd (human recombinant RIPK3 [3]): 0.61 nM | Kd (human recombinant RIPK3 [4]): 1.36 nM | Kd (human recombinant RIPK3 [5]): 1.96 nM | Kd (human recombinant RIPK3 [6]): 2.85 nM | Kd (human recombinant RIPK3 [7]): 3.49 nM
B1: recombinant human GADD45β (natural protein)
chain: MTLEELVACDNAAQKMQTVTAAVEELLVAAQRQDRLTVGVYESAKLMNVDPDSVVLCLLAIDEEEEDDIALQIHFTLIQSFCCDNDINIVRVSGMQRLAQLLGEPAETQGTTEARDLHCLLVTNPHTDAWKSHGLVEVASYCEESRGNNQWVPYISLQER
